Here are results for two molecules from article PMC7774954 (2020).

The target in experiment [1] is T1, MAST2-1 (human).
T1 chain: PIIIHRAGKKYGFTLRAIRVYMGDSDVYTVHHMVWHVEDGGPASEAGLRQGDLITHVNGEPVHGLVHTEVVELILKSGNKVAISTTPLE
Briefly: FP.

Experiment [2] has as its target HTRA1-1 (human). Briefly: FP.
The target of experiment [3] is T1, MAST2-1. In words: FP; competitive FP with fRSK1 tracer.
Experiment [4] deals with HTRA1-1 (human). Briefly: FP; competitive FP with fRSK1 tracer.

Where no end group is shown, it is not given here. The star is where a group is joined. Biotin = O=C1N[C@H]2[C@H](CS[C@H]2CCCCC(=O)*)N1; TTDS = NCCCOCCOCCOCCCNC(=O)CCC(=O)*

Chain of HTRA1-1 (human) (chain, as listed by the source): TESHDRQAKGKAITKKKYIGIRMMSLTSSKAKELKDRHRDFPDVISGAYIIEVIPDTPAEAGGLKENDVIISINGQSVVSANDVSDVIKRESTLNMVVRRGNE

For Fluorescein-KLPSTTL [fRSK1], the Kd in experiment [1] was 6.87 µM; in experiment [2], 64.8 µM.
Take {Biotin-TTDS}-DEDQHTQITKV [PTEN_11]: the dissociation constant Kd was determined as 3.14 µM in experiment [3] and 45.1 µM in experiment [4].

What is called Kd is the concentration at which binding is half-saturated. A low value points to tighter binding.
